The values below come from publication PMC4271523, “Differential Effects of a Mutation on the Normal and Promiscuous Activities of Orthologs: Implications for Natural and Directed Evolution” (Molecular Biology and Evolution, 2014).

Numbering of substitutions follows the chain as printed. Numbers in names are those of the source.

Common to all, as to experiment: purified protein
Substrate in data set [1]: N[C@@H](CCC=O)C(=O)O
The format is biochemical, Aliivibrio fischeri. The conditions noted are these: 1 mM NADP+, 100 mM potassium phosphate pH 7.6, room temperature, reverse (dehydrogenase) direction, apparent KM corrected to free GSA aldehyde/hydrate.

Substrate in data set [2]: CC(=O)N[C@@H](CCC=O)C(=O)O
The class given is biochemical, Aliivibrio fischeri. The conditions noted are these: 1 mM NADP+, 100 mM potassium phosphate pH 7.6, room temperature, reverse (dehydrogenase) direction, promiscuous substrate, apparent KM, NAGSA in equilibrium with its hydrate.

Substrate in data set [3]: N[C@@H](CCC=O)C(=O)O
The class given is biochemical, Escherichia coli. The conditions noted are these: 1 mM NADP+, 100 mM potassium phosphate pH 7.6, room temperature, reverse (dehydrogenase) direction, apparent KM corrected to free GSA aldehyde/hydrate.

Substrate in data set [4]: CC(=O)N[C@@H](CCC=O)C(=O)O
The format is biochemical, Escherichia coli. The conditions noted are these: 1 mM NADP+, 100 mM potassium phosphate pH 7.6, room temperature, reverse (dehydrogenase) direction, promiscuous substrate, apparent KM, NAGSA in equilibrium with its hydrate.

Substrate in data set [5]: N[C@@H](CCC=O)C(=O)O
The format is biochemical, Pseudomonas putida. The conditions noted are these: 1 mM NADP+, 100 mM potassium phosphate pH 7.6, room temperature, reverse (dehydrogenase) direction, apparent KM corrected to free GSA aldehyde/hydrate.

Substrate in data set [6]: CC(=O)N[C@@H](CCC=O)C(=O)O
The class given is biochemical, Pseudomonas putida. The conditions noted are these: 1 mM NADP+, 100 mM potassium phosphate pH 7.6, room temperature, reverse (dehydrogenase) direction, promiscuous substrate, apparent KM, NAGSA in equilibrium with its hydrate.

Substrate in data set [7]: N[C@@H](CCC=O)C(=O)O
The format is biochemical, Bacillus subtilis. The conditions noted are these: 1 mM NADP+, 100 mM potassium phosphate pH 7.6, room temperature, reverse (dehydrogenase) direction, apparent KM corrected to free GSA aldehyde/hydrate.

Substrate in data set [8]: CC(=O)N[C@@H](CCC=O)C(=O)O
The class given is biochemical, Bacillus subtilis. The conditions noted are these: 1 mM NADP+, 100 mM potassium phosphate pH 7.6, room temperature, reverse (dehydrogenase) direction, promiscuous substrate, apparent KM, NAGSA in equilibrium with its hydrate.

Substrate in data set [9]: N[C@@H](CCC=O)C(=O)O
The conditions noted are these: 1 mM NADP+, 100 mM potassium phosphate pH 7.6, room temperature, reverse (dehydrogenase) direction, apparent KM corrected to free GSA aldehyde/hydrate.

Substrate in data set [10]: CC(=O)N[C@@H](CCC=O)C(=O)O
The conditions noted are these: 1 mM NADP+, 100 mM potassium phosphate pH 7.6, room temperature, reverse (dehydrogenase) direction, promiscuous substrate, apparent KM, NAGSA in equilibrium with its hydrate.

Substrate in data set [11]: N[C@@H](CCC=O)C(=O)O
The format is biochemical, Saccharophagus degradans. The conditions noted are these: 1 mM NADP+, 100 mM potassium phosphate pH 7.6, room temperature, reverse (dehydrogenase) direction, apparent KM corrected to free GSA aldehyde/hydrate.

Substrate in data set [12]: CC(=O)N[C@@H](CCC=O)C(=O)O
The format is biochemical, Saccharophagus degradans. The conditions noted are these: 1 mM NADP+, 100 mM potassium phosphate pH 7.6, room temperature, reverse (dehydrogenase) direction, promiscuous substrate, apparent KM, NAGSA in equilibrium with its hydrate.

Substrate in data set [13]: N[C@@H](CCC=O)C(=O)O
The class given is biochemical, Methanosarcina acetivorans. The conditions noted are these: 1 mM NADP+, 100 mM potassium phosphate pH 7.6, room temperature, reverse (dehydrogenase) direction, apparent KM corrected to free GSA aldehyde/hydrate.

B1: Allivibrio fischeri ProA (Aliivibrio fischeri ES114) (protein)
chain: MNLTTMGQAAKAAAFDLAVAPTAQKNKALAIIADELEANKDAILAANEKDIKAAVEAGISEAMQDRLLLTEERLVGIANDVRNVINLNDPVGSEIDSKVLENGMSLSRRRVPIGVIGVIYEARPNVTIDIASLCLKTGNASILRGGKETFFSNMELVKVIQVALEKAGLPAASVQYIEKPDRELVSQLLTMDDYVDMIIPRGGAGLHKMCKENSSIPVIIGGFGISHAFVDESADLERALVVVDNSKAQRPSACNALDTLLVHEAVAPQFLALLANNMAGRVELVAEPKAYGLLKEFEGVSLREAQEGDFDTEWLSYTLGVKVVADVNEAAAHMQKHNASHSDTILTNNIESAEKFINTAGSAAVYVNASTRFTDGAQFGLGAEVAVSTQKLHARGPMGLEELTSYKWVGKADYLIRS
notes: His-tagged, pTrcHisB, expressed in delta-argC delta-proA E. coli BW25113 (DE3)
For the protein B1, in “purified protein [1]”, the Km – broadly, the concentration of substrate that gives half-maximal velocity – turned out to be 46 ± 11 µM; the kcat (as a rule, the maximal rate divided by the concentration of active sites) is 1.9 ± 0.2 s⁻¹; the kcat/Km (usually the second-order rate constant that governs catalysis at low substrate concentration) stood at 42000 ± 6000 M⁻¹ s⁻¹.

B2: Allivibrio fischeri ProA (Aliivibrio fischeri ES114; E384A) (protein)
chain: B1 chain with E384A
notes: as for B1
On to B2, for which the Michaelis constant (Km) in the data set “purified protein [2]” was found to be 65 ± 23 µM.

B3: E. coli ProA (GP reductase) (Escherichia coli K-12) (protein)
chain: MLEQMGIAAKQASYKLAQLSSREKNRVLEKIADELEAQSEIILNANAQDVADARANGLSEAMLDRLALTPARLKGIADDVRQVCNLADPVGQVIDGGVLDSGLRLERRRVPLGVIGVIYEARPNVTVDVASLCLKTGNAVILRGGKETCRTNAATVAVIQDALKSCGLPAGAVQAIDNPDRALVSEMLRMDKYIDMLIPRGGAGLHKLCREQSTIPVITGGIGVCHIYVDESVEIAEALKVIVNAKTQRPSTCNTVETLLVNKNIADSFLPALSKQMAESGVTLHADAAALAQLQAGPAKVVAVKAEEYDDEFLSLDLNVKIVSDLDDAIAHIREHGTQHSDAILTRDMRNAQRFVNEVDSSAVYVNASTRFTDGGQFGLGAEVAVSTQKLHARGPMGLEALTTYKWIGIGDYTIRA
notes: as for B1
With B3, in “purified protein [3]”, the Michaelis constant (Km) is 43 ± 3 µM, the turnover number (kcat) turned out to be 5.1 ± 0.2 s⁻¹ and the kcat/Km was determined as 120000 ± 10000 M⁻¹ s⁻¹. For the same protein, in the data set “purified protein [4]”, the Km is 480 ± 30 µM.

B4: Pseudomonas putida ProA (Pseudomonas putida KT2440) (protein)
chain: MTESVLDYMTRLGRAAREASRVIGRASTAQKNRALQAAADALDAARAELTAANELDLAAGRASGLEPALLDRLALTPARIDGMITGLRQVASLPDPVGAIRDMSYRPSGIQVGKMRTPLGVIGIIYESRPNVTIDAASLCLKSGNATILRGGSEAIHSNRAIATCIQRGLAEAGLPAAVVQVVETTDREAVGALISMPEFVDVIVPRGGRGLIERISRDARVPVIKHLDGICHIYVSQHADLDKAWNVAFNAKTYRYGICGAMETLLVDQQVAERFLPEMARRFVEKGVELRGCERTQAIISAKPATEADWHTEYLDAILSIRVVDGLNQAIEHINHYGSHHTDSIISEHQGEARQFMAEVDSASVMLNTPTCFADGFEYGLGAEIGISTDKLHARGPVGLEGLTCEKYVVIGDGQLRGQGSC
notes: as for B1
B4: in “purified protein [5]”, the Km amounted to 140 ± 90 µM, the kcat is 0.74 ± 0.23 s⁻¹ and the kcat/Km worked out at 6100 ± 1700 M⁻¹ s⁻¹. For the same protein, in “purified protein [6]”, the Km came to 5200 ± 1900 µM, the kcat was 0.001 ± 0.0003 s⁻¹ and the kcat/Km was found to be 0.15 ± 0.055 M⁻¹ s⁻¹.

B5: Bacillus subtilis ProA (Bacillus subtilis subsp. subtilis str. 168) (protein)
chain: MSEVSVKAKLAKEAAAEMIMKTTAEKDEALSLIANGLRKELDFLLAENAKDIVNGKENGLTPDIIDRLSLDEKRIRDIADAVELLIDLADPIGDSLETIEKENGLFIEKIRVPLGVVGMIYEARPNVTVDAATLCLKTGNAVVLRGSSSAIHSNKALVSVIYRALEQSALPIHAVQLIEDTSRETAKELFTLNDGLDVLIPRGGKKLIDLVVRESTVPVLETGAGNCHIFIDETAKPQMAEKVVVNAKTQRPSVCNAIESLLIHKAWARQHGKELLDQLENAGVEIRGDELVCELHPSSKQASKEDWETEFLAPVLSVKTVENVQEAVKHIQQYGTNHSEAILTENDKNAVYFQTAVDAAAVYHNASTRFTDGFEFGYGAEIGISTQKLHARGPMGLPALTSTKYIIKGTGQIRE
notes: as for B1
As for B5, in “purified protein [7]”, the Km came to 150 ± 20 µM, the kcat came out at 1.7 ± 0.2 s⁻¹ and the kcat/Km worked out at 11000 ± 1000 M⁻¹ s⁻¹. In “purified protein [8]”, the Km is 6000 ± 1500 µM, the kcat is 0.0014 ± 0.0003 s⁻¹ and the kcat/Km turned out to be 0.24 ± 0.015 M⁻¹ s⁻¹.

B6: Bacillus subtilis ProA (Bacillus subtilis subsp. subtilis str. 168; E381A) (protein)
chain: B5 chain with E381A
notes: as for B1
With B6, in the data set “purified protein [8]”, the Michaelis-Menten constant (Km) is 46 ± 19 µM, the kcat worked out at 0.0028 ± 0.0004 s⁻¹ and the kcat/Km amounted to 61 ± 14 M⁻¹ s⁻¹.

B7: Salmonella enterica ProA (Salmonella enterica subsp. enterica serovar Typhimurium str. LT2) (protein)
chain: MLEQMGIAAKAASYKLALLSSGEKNRVLEKIADELEAQMESILSANVQDVEQARANGLSEAMLDRLALTPARLKAIADDVRQVCNLADPVGQVIDGGLLDSGLRLERRRVPLGVVGVIYEARPNVTVDVASLCLKTGNAVILRGGKETYRTNAATVRVIQKALKACGLPEAAVQAIDNPDRSLVNEMLRMDKYIDMLIPRGGAGLHKLCREQSTIPVITGGIGVCHIFVDSSADIAPALKIIVNAKTQRPSTCNTVETLLVHQDIAERFLPALSKQMAESGVTLHGDETVMQVLHGPAKLVPLKPEELDNEFLSLDLNVVVVENMDGAIAHIREHGTQHSDAILTCDMHNAARFVNEVDSAAVYVNASTRFTDGGQFGLGAEVAVSTQKLHARGPMGLEALTTYKWIGFGDGTIRA
Consider B7, for which, in “purified protein [9]”, the Km came to 54 ± 12 µM, the kcat is 3.7 ± 0.5 s⁻¹ and the kcat/Km was 69000 ± 7000 M⁻¹ s⁻¹. Moreover, the Km in “purified protein [10]” is 2600 ± 100 µM.

B8: Saccharophagus degradans ProA (Saccharophagus degradans 2-40) (protein)
chain: MTVQDYMLTLGKQARAASRQMASADTGKKNAALLAIADAINSARDTIAAENARDMEAGRANGLDAALLDRLELTPERIDGMIEGLNQVAALPDPCGEITDLKYRPSGIQLGKKRTPLGVVGIIYESRPNVTVDAASLCLKSGNAAILRGGSEAIHSNKAVAVCIAAGLKAAGLPETAVQVVETTDRAAVGELITMTKYVDVVVPRGGKSLIERISADARVSVIKHLDGICHVYVDKTANLDKAFNIVINSKTHRYGVCNAMETMLVDEAIAADFLPRAAKEFAARGVELRGCEKTVALLTASDIPVVAALEEDWDTEYLAPILSIKLVANMDEAIEHINNHGSHHTDALVSENYTLARKFLTEVDSSSVMINASTRFADGFEYGLGAEIGISTDKIHARGPVGLEGLTSQKWIVFGDGHIRN
notes: as for B1
Regarding B8, in “purified protein [11]”, the Km was determined as 85 ± 13 µM, the kcat is 0.4 ± 0.04 s⁻¹ and the kcat/Km was 4700 ± 400 M⁻¹ s⁻¹. In addition, in the data set “purified protein [12]”, the Km was determined as 820 ± 160 µM, the kcat worked out at 3e-05 ± 3e-06 s⁻¹ and the kcat/Km came out at 0.037 ± 0.004 M⁻¹ s⁻¹.

B9: Methanosarcina acetivorans ProA (Methanosarcina acetivorans C2A) (protein)
chain: MAEDIETKVVKAKKASIELSSVSEEVKNRALEAMAESLDRERKAILEANSKDLEYASELKKVGKLTQALVDRLKVTDSKIDGMIAGIMDVIKLKDPVGETLSTLELDNDLILYQISCPIGLIGVIFESRPDVVPQVMSLCLKSGNATIFKGGSEARESNRTIFEILVKAIESTEGMPKGAFQLMETREEIMSLLSLDAYVDLLIPRGSNEFVKFIQDNTKIPVLGHTSGICHIYVDEFADPDTAWKVCFDAKVQYPAVCNAIETLLVNRKIAEAFLPKMAEMYIKAGVELRCDKDSYILLAEKGLSPLSKATEEDWSLEYNDLILSIKLVDTIKEAIAHINTFGSHHTDGIITENASRRKEFIGLVDSSSVMVNASTRFADGYRYGKGAEVGISTNKIHSRGPVGMEGLLIYKYILMGKGQVVADYAGENAKPYTHRKLDLKFADVN
notes: as for B1
Consider B9, for which, in the data set “purified protein [13]”, the Km was found to be 14 ± 4 µM, the kcat turned out to be 0.43 ± 0.03 s⁻¹ and the specificity constant (kcat/Km) is 25000 ± 11000 M⁻¹ s⁻¹.

B10: Methanosarcina acetivorans ProA (Methanosarcina acetivorans C2A; E390A) (protein)
chain: B9 chain with E390A
notes: as for B1
As to B10, in the data set “purified protein [13]”, the Km stood at 56 ± 28 µM, the kcat is 0.0018 ± 0.0005 s⁻¹ and the kcat/Km was found to be 32 ± 15 M⁻¹ s⁻¹.
